Assay results published in paper PMC6936867.

Columns and labels:
[1] = molecular target: FcγRIIIa F158 (UniProt P08637); test: SPR
[2] = molecular target: FcγRIIIa V158; test: SPR
[3] = molecular target: FcγRIIa H131 (UniProt P12318); test: SPR
[4] = molecular target: FcγRIIa R131 (UniProt P12318); test: SPR
[5] = molecular target: FcγRIIb (UniProt P31994); test: SPR
[6] = molecular target: CAP256-VRC26.25 IgG3*17 (human); test: SPR; antibodies printed at 200 nM in 25 mM sodium acetate pH 5.0 on an NHS/EDC-activated carboxymethyldextran gold prism (CFM, MX96 array reader); FcγRs injected in PBS + 0.05% Tween 20, 8-part 3-fold dilution series generally starting between 10 and 50 μM, 5 min association, 5 min dissociation; kinetic global analysis for KD

Sequence of FcγRIIa H131 (P12318 34-317): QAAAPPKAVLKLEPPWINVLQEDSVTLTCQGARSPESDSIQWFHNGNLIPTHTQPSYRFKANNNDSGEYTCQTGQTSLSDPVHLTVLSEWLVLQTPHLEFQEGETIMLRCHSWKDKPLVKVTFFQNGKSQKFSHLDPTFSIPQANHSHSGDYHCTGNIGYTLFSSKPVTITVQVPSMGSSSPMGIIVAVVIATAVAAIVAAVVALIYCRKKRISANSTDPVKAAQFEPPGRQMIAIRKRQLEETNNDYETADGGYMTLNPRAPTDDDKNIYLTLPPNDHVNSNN
Sequence of FcγRIIa R131 (P12318 34-217 H167R): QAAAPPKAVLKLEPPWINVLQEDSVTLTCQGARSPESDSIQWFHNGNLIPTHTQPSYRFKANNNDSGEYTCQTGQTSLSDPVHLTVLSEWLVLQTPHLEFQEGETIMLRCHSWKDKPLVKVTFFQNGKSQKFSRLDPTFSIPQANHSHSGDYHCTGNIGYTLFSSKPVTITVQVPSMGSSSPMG
Sequence of FcγRIIIa V158 (P08637 17-208 F176V): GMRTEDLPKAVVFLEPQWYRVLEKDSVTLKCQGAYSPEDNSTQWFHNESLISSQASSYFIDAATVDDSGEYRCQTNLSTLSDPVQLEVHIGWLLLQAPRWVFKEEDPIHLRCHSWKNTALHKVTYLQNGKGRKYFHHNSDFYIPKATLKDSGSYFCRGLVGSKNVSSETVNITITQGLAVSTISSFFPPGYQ
Sequence of FcγRIIIa F158 (P08637 17-254): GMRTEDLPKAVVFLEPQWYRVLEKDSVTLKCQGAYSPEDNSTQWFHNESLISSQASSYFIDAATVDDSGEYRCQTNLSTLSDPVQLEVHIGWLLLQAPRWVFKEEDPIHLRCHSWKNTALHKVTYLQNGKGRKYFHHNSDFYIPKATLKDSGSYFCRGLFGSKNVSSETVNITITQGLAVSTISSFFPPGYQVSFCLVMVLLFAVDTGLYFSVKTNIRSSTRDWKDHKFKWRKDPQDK
Sequence of FcγRIIb (P31994 43-310): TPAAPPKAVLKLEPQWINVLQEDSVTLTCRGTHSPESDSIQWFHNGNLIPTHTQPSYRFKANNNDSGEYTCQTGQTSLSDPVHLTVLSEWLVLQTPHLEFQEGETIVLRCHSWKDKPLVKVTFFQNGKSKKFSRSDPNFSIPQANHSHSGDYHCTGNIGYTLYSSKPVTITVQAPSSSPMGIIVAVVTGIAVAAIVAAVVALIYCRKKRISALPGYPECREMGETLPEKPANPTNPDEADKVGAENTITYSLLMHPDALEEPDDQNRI

Substance	Kd [1]	Kd [2]	Kd [3]	Kd [4]	Kd [5]	fold less binding than other variants [6]
CAP256-VRC26.25 IgG3*17	4.9 µM	4.1 µM	1 µM	2 µM	4.5 µM	
FcγRIIIa						1.7 to 1.9 fold
CAP256-VRC26.29 IgG3*01 (from UniProt P01860)	4.4 µM	2.6 µM	1.3 µM			
CAP256-VRC26.29 IgG1 (from UniProt P01857)	4.5 µM	3.6 µM	5.5 µM	5.2 µM	5.4 µM	
CAP256-VRC26.25 IgG3*01	3.1 µM	2.2 µM	1 µM	3.9 µM	4.6 µM	
CAP256-VRC26.25 IgG1	3.9 µM	2.4 µM	5.6 µM	5.7 µM	6.6 µM	
CAP256-VRC26.29 IgG3*01m (from UniProt P01860)	3.9 µM	2.7 µM	1.4 µM			
CAP256-VRC26.29 IgG3*17 (from UniProt P01860)	4.5 µM	2.4 µM	1.3 µM	2.9 µM	4.1 µM	
